Values belong to the substance of their own block, whether it stands above or below them.
Columns and labels:
[1] = biological target: T1, sNgR310 (Rattus norvegicus, UniProt Q99M75, A303T/C287S/C43R/E284G/T53A); test: Aβ42 effect on Biotin-Aβ40 binding to immobilized sNgR310; conditions: dose-dependent, streptavidin HRP
T1 sequence (Q99M75 27-310 C43R/T53A/E284G/C287S/A303T): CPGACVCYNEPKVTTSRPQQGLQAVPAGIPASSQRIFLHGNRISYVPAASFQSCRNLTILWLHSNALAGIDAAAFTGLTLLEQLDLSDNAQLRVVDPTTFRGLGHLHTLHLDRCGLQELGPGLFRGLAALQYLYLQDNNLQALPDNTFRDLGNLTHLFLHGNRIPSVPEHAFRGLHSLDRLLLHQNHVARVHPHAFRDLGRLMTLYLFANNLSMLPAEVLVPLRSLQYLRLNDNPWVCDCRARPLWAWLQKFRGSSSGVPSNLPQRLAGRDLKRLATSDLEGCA
Text: We examined whether the interaction between NgR and Aβ peptide has a role in aggregate formation. sNgR310 was immobilized on microtiter plates and Biotin-Aβ40 was applied along with Aβ42 peptide.

[2] = biological target: T2, human NgR1 (Homo sapiens, UniProt Q9BZR6); test: Aβ42 effect on Biotin-Aβ40 binding to SKNMC cells expressing human NGR1; conditions: SKNMC cells expressing human NGR1, dose-dependent
T2 construct: expressed in transfected cells; host or cells: SKNMC cells
T2 sequence (Q9BZR6 27-447): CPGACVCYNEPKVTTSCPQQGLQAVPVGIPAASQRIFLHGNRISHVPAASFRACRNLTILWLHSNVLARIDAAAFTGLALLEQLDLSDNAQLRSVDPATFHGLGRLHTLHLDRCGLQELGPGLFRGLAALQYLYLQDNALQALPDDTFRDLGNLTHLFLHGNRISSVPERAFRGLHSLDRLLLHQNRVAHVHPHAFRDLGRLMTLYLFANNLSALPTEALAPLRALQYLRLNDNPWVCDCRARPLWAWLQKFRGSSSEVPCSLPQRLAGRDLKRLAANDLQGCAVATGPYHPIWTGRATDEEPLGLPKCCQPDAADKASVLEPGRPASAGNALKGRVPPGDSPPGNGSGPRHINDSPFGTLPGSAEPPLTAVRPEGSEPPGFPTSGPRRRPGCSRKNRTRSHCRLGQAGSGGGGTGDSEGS

[3] = biological target: T3, NgR (Homo sapiens, UniProt Q9BZR6); test: AP-Aβ(1-28) fusion protein binding to NgR-expressing COS cells; conditions: not to vector-transfected COS cells
T3 construct: expressed in transfected cells; host or cells: COS cells
T3 sequence (Q9BZR6 27-473): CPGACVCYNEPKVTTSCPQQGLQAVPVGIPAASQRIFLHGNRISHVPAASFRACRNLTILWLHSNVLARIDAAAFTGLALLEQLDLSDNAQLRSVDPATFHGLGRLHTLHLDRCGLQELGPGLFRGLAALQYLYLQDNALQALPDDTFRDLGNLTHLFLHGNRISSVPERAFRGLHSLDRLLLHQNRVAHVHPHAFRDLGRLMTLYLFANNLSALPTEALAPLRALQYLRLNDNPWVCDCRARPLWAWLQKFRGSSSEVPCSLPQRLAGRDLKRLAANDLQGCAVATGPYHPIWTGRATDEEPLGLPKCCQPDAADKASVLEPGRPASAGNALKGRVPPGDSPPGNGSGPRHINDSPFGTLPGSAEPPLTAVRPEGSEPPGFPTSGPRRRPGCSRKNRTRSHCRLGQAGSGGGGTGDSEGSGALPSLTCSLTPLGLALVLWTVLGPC
Text: We then investigated whether the Aβ region of APP is involved in its interaction with NgR—including whether the fibrillogenic Aβ42-3 peptide binds NgR. We created two fusion protein constructs containing alkaline phosphatase (AP) and the hydrophilic region of Aβ (amino acids 1-28) by fusing the coding sequence in frame with the signal sequence-6×His-placental alkaline phosphatase (AP) sequence of the vector pAP-6 (Nakamura et al., Neuron 2: 1093-1100, 1988). The AP-Aβ and Aβ-AP proteins both bound to NgR-expressing COS cells but not to vector-transfected COS cells. This binding was saturable with an apparent Kd of 60 nM. The interaction also was detected using purified Biotin-Aβ(1-40) in an ELISA-type assay with immobilized NgR.

[4] = biological target: T4, NgR2 (Homo sapiens, UniProt Q86UN3); test: Aβ-AP binding specificity, NgR2
T4 sequence (Q86UN3 47-390): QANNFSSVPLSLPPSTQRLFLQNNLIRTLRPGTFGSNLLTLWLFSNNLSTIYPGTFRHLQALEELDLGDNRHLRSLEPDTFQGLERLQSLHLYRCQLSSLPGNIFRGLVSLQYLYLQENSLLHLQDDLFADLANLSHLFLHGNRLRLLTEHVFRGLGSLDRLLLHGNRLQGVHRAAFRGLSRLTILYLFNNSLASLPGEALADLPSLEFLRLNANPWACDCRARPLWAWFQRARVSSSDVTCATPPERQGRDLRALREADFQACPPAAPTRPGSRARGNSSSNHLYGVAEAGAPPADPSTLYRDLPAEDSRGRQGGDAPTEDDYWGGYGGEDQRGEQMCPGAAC
Text: (§1) The specificity and selectivity of the Aβ(1-28) interaction with NgR was probed in several ways. The interaction was specific for NgR1 because neither NgR2 or NgR3—which share sequence similarity with NgR—bound Aβ-AP. Further, we observed species specificity: human NgR binds human AB to a greater extent than mouse NgR binds human AB or human NgR binds mouse AB or mouse NgR binds mouse Aβ.

[5] = biological target: T5, NgR3 (Homo sapiens, UniProt Q86UN2); test: Aβ-AP binding specificity, NgR3
T5 sequence (Q86UN2 25-420): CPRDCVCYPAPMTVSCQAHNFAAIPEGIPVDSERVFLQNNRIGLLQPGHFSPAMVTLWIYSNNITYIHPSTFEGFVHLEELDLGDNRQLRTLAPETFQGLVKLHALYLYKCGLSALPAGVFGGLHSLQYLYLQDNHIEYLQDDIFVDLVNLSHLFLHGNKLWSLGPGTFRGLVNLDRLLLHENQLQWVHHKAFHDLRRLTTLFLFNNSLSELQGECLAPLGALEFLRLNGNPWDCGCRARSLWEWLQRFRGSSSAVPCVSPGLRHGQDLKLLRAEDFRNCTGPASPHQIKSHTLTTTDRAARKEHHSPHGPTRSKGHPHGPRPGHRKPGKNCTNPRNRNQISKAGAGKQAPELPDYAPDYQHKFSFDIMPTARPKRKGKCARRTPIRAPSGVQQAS
Text: as §1

[6] = biological target: T2, human NgR1; test: Fluo-Aβ42 binding to SKNMC cells expressing human NgR-1; conditions: 2 h at 4° C.
[7] = biological target: T6, sNgR310-Fc (Rattus norvegicus, UniProt Q99M75, A303T/C287S/C43R/E284G/T53A); test: Competition of free Aβ with NgR ligands on sNgR310-Fc coated wells; format: binding; conditions: competition assay
T6 construct: Fc portion of IgG (rat)
T6 sequence (Q99M75 27-310 C43R/T53A/E284G/C287S/A303T): T1 sequence (Q99M75 27-310 C43R/T53A/E284G/C287S/A303T)
Method: We analyzed whether Aβ (1-28) binding competed for NgR binding with other known ligands for NgR by allowing 250 nM soluble AP-Aβ(1-28) or AP-Nogo (1-33) to bind to wells coated with purified sNgR310-Fc in the presence of various concentrations of competing free Aβ. […] We observed that the Aβ peptides bind to both sNgR310-Fc and sNgR344-Fc. […] However, Aβ(1-28) displaced Aβ-AP binding but not AP-Nogo-66 (1-33) or AP-OMgp binding in competition assays. The Aβ peptide may begin to displace AP-MAG very slightly at high concentrations in our experiments. Thus, the Aβ binding site on NgR appears largely distinct from that for the myelin ligands NogoA, OMgp and MAG. Consistent with this, the presence of Aβ had little effect on myelin or Nogo-66 inhibition of neurite outgrowth.

- effect on binding of Biotin-Aβ40 peptide to immobilized sNgR310 [1]: enhanced
- effect on binding of Biotin-Aβ40 peptide to cells [2]: enhanced
Substance: Aβ42 peptide: fibrillogenic Aβ42 peptide

- binding to NgR-expressing COS cells [3]: bound
- binding to NgR2 [4]: neither
- binding to NgR3 [5]: neither
Substance: Aβ-AP: fusion protein of the hydrophilic region of Aβ (amino acids 1-28) and alkaline phosphatase (AP)

- binding to SKNMC cells expressing human NgR-1 [6]: binds
Substance: Fluo-Aβ42: labelled fibrillogenic Aβ42 peptide

- displacement of AP-Nogo-66 (1-33) binding [7]: not
- displacement of AP-OMgp binding [7]: not
- displacement of Aβ-AP binding [7]: displaced
Substance: Aβ(1-28): free Aβ peptide, amino acids 1-28, used as competitor

— US20070065429A1, “Nogo-receptor antagonists for the treatment of conditions involving amyloid plaques” (Biogen Idec MA Inc., priority 2003, published 2007)
